Assay results published in patent US20220125885A1, “GLUCAGON ANALOG AGONISTS AND METHODS OF USING THE SAME” (Eli Lilly and Company, priority 2019, published 2022).
Where no end group is shown, it is not given here. [ ]: non-standard residue; d: D form. 4Pal = N[C@@H](Cc1ccncc1)C(=O)O; Dab = NCC[C@H](N)C(=O)O; Aib = CC(C)(N)C(=O)O

T1: human GIP receptor (hGIP-R) (Homo sapiens, UniProt P48546)
T1 construct: expressed in transfected cells; host or cells: HEK-293 clonal cell line
T1 sequence (P48546 22-466): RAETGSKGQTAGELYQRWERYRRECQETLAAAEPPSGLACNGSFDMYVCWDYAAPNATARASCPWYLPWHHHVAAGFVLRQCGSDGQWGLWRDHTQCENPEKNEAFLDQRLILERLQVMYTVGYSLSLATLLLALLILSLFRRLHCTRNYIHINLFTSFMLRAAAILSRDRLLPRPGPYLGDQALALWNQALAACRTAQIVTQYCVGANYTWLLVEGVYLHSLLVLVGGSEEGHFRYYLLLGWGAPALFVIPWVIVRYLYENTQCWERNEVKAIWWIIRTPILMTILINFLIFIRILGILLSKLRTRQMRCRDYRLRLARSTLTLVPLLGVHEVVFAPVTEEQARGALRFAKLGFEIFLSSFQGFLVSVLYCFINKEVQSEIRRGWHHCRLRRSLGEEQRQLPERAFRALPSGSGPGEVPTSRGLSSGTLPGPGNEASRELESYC


How the values were obtained:
[1] = biological target: T1, human GIP receptor (hGIP-R); assay: cAMP functional activity assay, hGIP-R HEK-293 cells; assay type: cell-based
Method: After a sixty-minute incubation at room temperature, the resulting increase in intracellular cAMP is quantitatively determined using a cAMP Dynamic 2 HTRF Assay Kit (62AM4PEJ; CisBio; Codolet, FR). Briefly, cAMP levels within the cell are detected by adding a cAMP-d2 conjugate in cell lysis buffer (10 μl) followed by an anti-cAMP-Eu3+-Cryptate antibody, also in cell lysis buffer (10 μl). […] A relative EC50 value and percent top (Emax) are derived by non-linear regression analysis using the percent maximal response vs. the concentration of peptide added, fitted to a four-parameter logistic equation.

in vivo = conditions: male, Yucatan miniature swine, pig, sc, 10 ug/kg
Method: 1. […] The compounds and an analog as an internal standard are extracted from […] by antibody or protein precipitations. The intact mass of the compounds are detected by a Q Exactive® Orbitrap® Mass Spectrometer (Thermo Fisher Scientific; Waltham, Mass.). 2. […] Blood is collected at pre-dose, 2, 5, 10, 15, 20, 25, 30, 45, 60, 75, 90, 120 and 150 minutes post-dose, and plasma is obtained for pharmacokinetic characterization. […] Blood is collected at pre-dose, 2, 5, 10, 15, 20, 25, 30, 45, 60, 75, 90, 120 and 150 minutes postdose, and plasma is obtained for pharmacokinetic characterization.

[2] = biological target: T2, human GLP-1 receptor (hGLP-1R) (Homo sapiens, UniProt P43220); assay: cAMP functional activity assay, hGLP-1R HEK-293 cells; assay type: cell-based; conditions: HEK293; percent of response to 10 nM GLP-1(7-36)NH2; mean ± SEM
T2 construct: expressed in transfected cells; host or cells: HEK-293 clonal cell line

rat glucagon receptor [3] = biological target: T3, rat glucagon receptor (rat, UniProt P30082 27-485); assay: cell-based or functional assay
human glucagon receptor [4] = biological target: T4, human glucagon receptor (human, UniProt P47871 26-477); assay: cell-based or functional assay
human GLP-1 receptor [5] = biological target: T5, human GLP-1 receptor (human, UniProt P43220 24-463); assay: cell-based or functional assay
rat glucagon receptor [6] = biological target: T3, rat glucagon receptor; assay: SPA competition with 125I-labelled glucagon on rGCGR membranes
Method: (§1) Plates are sealed, mixed on a plate shaker, and read with a MicroBeta™ scintillation counter (PerkinElmer) after 12 hr of settling time at room temperature.
The SPA receptor binding assay and calculation of the results are carried out as described in the hGCGR binding assay.

human glucagon receptor [7] = biological target: T4, human glucagon receptor; assay: SPA competition with 125I-labelled glucagon on hGCGR membranes
Text: as §1

[8] = biological target: human GIP receptor (human) (UniProt P48546); assay: cell-based or functional assay
human GLP-1 receptor [9] = biological target: T5, human GLP-1 receptor; assay: cell-based or functional assay; remark: listed apart in the source
human glucagon receptor [10] = biological target: T4, human glucagon receptor; assay: cell-based or functional assay; remark: listed apart in the source

T3 sequence (P30082 27-485): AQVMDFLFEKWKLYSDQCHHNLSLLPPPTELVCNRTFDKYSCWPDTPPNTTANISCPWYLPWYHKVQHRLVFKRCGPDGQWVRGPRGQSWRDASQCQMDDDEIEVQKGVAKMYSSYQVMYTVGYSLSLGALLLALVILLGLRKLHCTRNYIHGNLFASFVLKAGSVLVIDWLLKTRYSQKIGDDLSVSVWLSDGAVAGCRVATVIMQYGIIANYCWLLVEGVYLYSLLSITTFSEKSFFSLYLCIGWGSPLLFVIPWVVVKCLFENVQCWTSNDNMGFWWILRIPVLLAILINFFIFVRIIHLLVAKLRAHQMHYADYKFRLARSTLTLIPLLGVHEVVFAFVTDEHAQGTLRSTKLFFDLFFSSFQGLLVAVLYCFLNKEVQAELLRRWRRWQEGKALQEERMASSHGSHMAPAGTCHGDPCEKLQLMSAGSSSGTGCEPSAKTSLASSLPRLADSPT
T4 sequence (P47871 26-477): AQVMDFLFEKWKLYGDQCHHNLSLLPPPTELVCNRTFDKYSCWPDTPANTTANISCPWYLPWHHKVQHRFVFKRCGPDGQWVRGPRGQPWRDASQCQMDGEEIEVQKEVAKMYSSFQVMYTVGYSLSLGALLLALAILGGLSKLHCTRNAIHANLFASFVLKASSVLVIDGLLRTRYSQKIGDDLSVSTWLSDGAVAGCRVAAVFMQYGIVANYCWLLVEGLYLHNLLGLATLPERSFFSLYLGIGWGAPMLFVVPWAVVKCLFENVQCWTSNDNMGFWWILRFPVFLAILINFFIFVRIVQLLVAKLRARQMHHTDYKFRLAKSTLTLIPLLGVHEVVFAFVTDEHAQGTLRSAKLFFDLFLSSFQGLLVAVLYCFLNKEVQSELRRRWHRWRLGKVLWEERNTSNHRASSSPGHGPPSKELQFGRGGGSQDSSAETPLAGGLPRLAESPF
T2 sequence (P43220 24-463): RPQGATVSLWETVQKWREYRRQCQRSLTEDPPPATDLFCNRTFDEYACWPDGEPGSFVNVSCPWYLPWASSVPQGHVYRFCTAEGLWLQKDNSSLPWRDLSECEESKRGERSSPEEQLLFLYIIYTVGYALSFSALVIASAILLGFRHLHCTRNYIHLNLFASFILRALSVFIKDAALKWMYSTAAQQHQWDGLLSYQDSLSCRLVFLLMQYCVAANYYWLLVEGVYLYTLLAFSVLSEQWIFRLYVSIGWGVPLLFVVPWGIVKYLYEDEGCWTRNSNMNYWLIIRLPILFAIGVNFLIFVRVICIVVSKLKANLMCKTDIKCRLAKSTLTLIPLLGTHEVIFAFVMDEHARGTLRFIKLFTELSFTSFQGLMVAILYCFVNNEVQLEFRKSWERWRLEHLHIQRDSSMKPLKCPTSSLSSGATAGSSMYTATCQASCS

Molecule | Emax at 9.95 µM ([1]; HEK293, percent of response to 10 nM GIP(1-42)NH2, Examples at 9.95 μM, read-out: Emax hGIPR) | EC50 ([1]; in the presence of FBS and BSA, read-out: cAMP EC50 hGIPR) | AUC(0-inf) (in vivo; AUC0-inf) | CL/F (in vivo; CL/F) | Emax [2] | cAMP EC50 (rat glucagon receptor [3]) | cAMP EC50 (human glucagon receptor [4]) | cAMP EC50 (human GLP-1 receptor [5]) | Ki (rat glucagon receptor [6]) | Ki (human glucagon receptor [7]) | Emax (% of response to 10 nM GIP(1-42)NH2), at 9.95 µM [8] | cAMP EC50 [8] | Emax (% of response to 10 nM GLP-1(7-36)NH2) (human GLP-1 receptor [9]) | Emax (% of response to 1 nM Glucagon) (human glucagon receptor [10])
CC(C)C[C@H](NC(=O)[C@H](Cc1ccncc1)NC(=O)[C@H](CCCCN)NC(=O)[C@@H](NC(=O)[C@H](Cc1ccccc1)NC(=O)[C@H](C)NC(=O)[C@H](CCC(N)=O)NC(=O)[C@H](C)NC(=O)[C@H](CCCNC(=N)N)NC(=O)[C@H](CCCNC(=N)N)NC(=O)C(C)(C)NC(=O)[C@H](CC(=O)O)NC(=O)[C@H](CC(C)C)NC(=O)[C@H](Cc1ccc(O)cc1)NC(=O)[C@H](CCCCN)NC(=O)[C@H](CO)NC(=O)[C@H](Cc1ccc(O)cc1)NC(=O)[C@H](CC(=O)O)NC(=O)[C@H](CO)NC(=O)[C@@H](NC(=O)[C@H](Cc1ccccc1)NC(=O)[C@@H](NC(=O)CNC(=O)[C@H](CCC(N)=O)NC(=O)[C@H](CO)NC(=O)[C@@H](N)Cc1c[nH]cn1)[C@@H](C)O)[C@@H](C)O)C(C)C)C(=O)N[C@@H](CC(C)C)C(=O)N[C@@H](CO)C(=O)N[C@H](C(=O)O)[C@@H](C)O [Example 2] | < 5% | > 9950 nM | 1.92 ng·h/mL | 87 mL/min/kg | 109 ± 4% | – | – | – | – | – | – | – | – | –
HS[Dab](Ac)GTFTSDYSKYLD[Aib]RRAQAFVK[4Pal]LLST-OH (N-terminus assumed; SMILES CC(=O)NCC[C@H](NC(=O)[C@H](CO)NC(=O)[C@@H](N)Cc1c[nH]cn1)C(=O)NCC(=O)N[C@H](C(=O)N[C@@H](Cc1ccccc1)C(=O)N[C@H](C(=O)N[C@@H](CO)C(=O)N[C@@H](CC(=O)O)C(=O)N[C@@H](Cc1ccc(O)cc1)C(=O)N[C@@H](CO)C(=O)N[C@@H](CCCCN)C(=O)N[C@@H](Cc1ccc(O)cc1)C(=O)N[C@@H](CC(C)C)C(=O)N[C@@H](CC(=O)O)C(=O)NC(C)(C)C(=O)N[C@@H](CCCNC(=N)N)C(=O)N[C@@H](CCCNC(=N)N)C(=O)N[C@@H](C)C(=O)N[C@@H](CCC(N)=O)C(=O)N[C@@H](C)C(=O)N[C@@H](Cc1ccccc1)C(=O)N[C@H](C(=O)N[C@@H](CCCCN)C(=O)N[C@@H](Cc1ccncc1)C(=O)N[C@@H](CC(C)C)C(=O)N[C@@H](CC(C)C)C(=O)N[C@@H](CO)C(=O)N[C@H](C(=O)O)[C@@H](C)O)C(C)C)[C@@H](C)O)[C@@H](C)O) [Example 3 compound (glucagon analog agonist, SEQ ID NO:5)] | – | – | – | – | – | 0.188 nM | 0.0108 nM | 1300 nM | 21.7 nM | 2.08 nM | < 5% | > 9950 nM | 109% | –
HS[Dab](Ac)GTFTSDYSKYLD[Aib]RRAQQFVK[4Pal]LLST-OH (N-terminus assumed; SMILES CC(=O)NCC[C@H](NC(=O)[C@H](CO)NC(=O)[C@@H](N)Cc1c[nH]cn1)C(=O)NCC(=O)N[C@H](C(=O)N[C@@H](Cc1ccccc1)C(=O)N[C@H](C(=O)N[C@@H](CO)C(=O)N[C@@H](CC(=O)O)C(=O)N[C@@H](Cc1ccc(O)cc1)C(=O)N[C@@H](CO)C(=O)N[C@@H](CCCCN)C(=O)N[C@@H](Cc1ccc(O)cc1)C(=O)N[C@@H](CC(C)C)C(=O)N[C@@H](CC(=O)O)C(=O)NC(C)(C)C(=O)N[C@@H](CCCNC(=N)N)C(=O)N[C@@H](CCCNC(=N)N)C(=O)N[C@@H](C)C(=O)N[C@@H](CCC(N)=O)C(=O)N[C@@H](CCC(N)=O)C(=O)N[C@@H](Cc1ccccc1)C(=O)N[C@H](C(=O)N[C@@H](CCCCN)C(=O)N[C@@H](Cc1ccncc1)C(=O)N[C@@H](CC(C)C)C(=O)N[C@@H](CC(C)C)C(=O)N[C@@H](CO)C(=O)N[C@H](C(=O)O)[C@@H](C)O)C(C)C)[C@@H](C)O)[C@@H](C)O) [Example 4 compound (glucagon analog agonist, SEQ ID NO:6)] | – | – | – | – | – | 0.083 nM | 0.00888 nM | 1270 nM | 13.5 nM | 1.2 nM | < 5% | > 9950 nM | 100% | 98%
HSQGTFTSDYSKYLD[Aib]RRAQQFVK[4Pal]LLST-OH (N-terminus assumed; SMILES CC(C)C[C@H](NC(=O)[C@H](Cc1ccncc1)NC(=O)[C@H](CCCCN)NC(=O)[C@@H](NC(=O)[C@H](Cc1ccccc1)NC(=O)[C@H](CCC(N)=O)NC(=O)[C@H](CCC(N)=O)NC(=O)[C@H](C)NC(=O)[C@H](CCCNC(=N)N)NC(=O)[C@H](CCCNC(=N)N)NC(=O)C(C)(C)NC(=O)[C@H](CC(=O)O)NC(=O)[C@H](CC(C)C)NC(=O)[C@H](Cc1ccc(O)cc1)NC(=O)[C@H](CCCCN)NC(=O)[C@H](CO)NC(=O)[C@H](Cc1ccc(O)cc1)NC(=O)[C@H](CC(=O)O)NC(=O)[C@H](CO)NC(=O)[C@@H](NC(=O)[C@H](Cc1ccccc1)NC(=O)[C@@H](NC(=O)CNC(=O)[C@H](CCC(N)=O)NC(=O)[C@H](CO)NC(=O)[C@@H](N)Cc1c[nH]cn1)[C@@H](C)O)[C@@H](C)O)C(C)C)C(=O)N[C@@H](CC(C)C)C(=O)N[C@@H](CO)C(=O)N[C@H](C(=O)O)[C@@H](C)O) [Example 1 compound (glucagon analog agonist, SEQ ID NO:3)] | – | – | – | – | – | 0.135 nM | 0.0143 nM | 181 nM | 17.4 nM | 3.18 nM | < 5% | > 9950 nM | 105% | 103%
HSQGTFTSDYSKYLD[Aib]RRAQAFVK[4Pal]LLST-OH (N-terminus assumed; SMILES CC(C)C[C@H](NC(=O)[C@H](Cc1ccncc1)NC(=O)[C@H](CCCCN)NC(=O)[C@@H](NC(=O)[C@H](Cc1ccccc1)NC(=O)[C@H](C)NC(=O)[C@H](CCC(N)=O)NC(=O)[C@H](C)NC(=O)[C@H](CCCNC(=N)N)NC(=O)[C@H](CCCNC(=N)N)NC(=O)C(C)(C)NC(=O)[C@H](CC(=O)O)NC(=O)[C@H](CC(C)C)NC(=O)[C@H](Cc1ccc(O)cc1)NC(=O)[C@H](CCCCN)NC(=O)[C@H](CO)NC(=O)[C@H](Cc1ccc(O)cc1)NC(=O)[C@H](CC(=O)O)NC(=O)[C@H](CO)NC(=O)[C@@H](NC(=O)[C@H](Cc1ccccc1)NC(=O)[C@@H](NC(=O)CNC(=O)[C@H](CCC(N)=O)NC(=O)[C@H](CO)NC(=O)[C@@H](N)Cc1c[nH]cn1)[C@@H](C)O)[C@@H](C)O)C(C)C)C(=O)N[C@@H](CC(C)C)C(=O)N[C@@H](CO)C(=O)N[C@H](C(=O)O)[C@@H](C)O) [Example 2 compound (glucagon analog agonist, SEQ ID NO:4)] | – | – | – | – | – | 0.204 nM | 0.0265 nM | 250 nM | 34.2 nM | 6.87 nM | < 5% | > 9950 nM | 109% | –
